Values joined by “and” are separate entries in the source; they are usually repeats but may differ in a detail not shown here. Equal values may be shown once.
Legend:
[1] = molecular target: SARS-CoV spike without stabilizing modifications on pseudovirus (SARS-CoV) (UniProt P59594); test: cell-based or functional assay
[2] = molecular target: wild-type SARS-CoV-2 spike without stabilizing modifications (on cells or pseudovirus) (SARS-CoV-2) (UniProt P0DTC2); test: cell-based or functional assay
[3] = molecular target: SARS-CoV-2 HexaPro spike (SARS-CoV-2) (UniProt P0DTC2)

Substance | Pseudovirus IC50 [1] [µM] | Pseudovirus IC50 [2] [µM] | Kd [3]
isotype control antibody with irrelevant binding | > 5 | > 5 | –
antibody S309 (Pinto et al., 2020) | 0.0005 | 0.001 | 0.018 µM and 0.024 µM
